“Also recorded” adds a separate entry of the source. Read-outs that look alike come from different tables or passages of the source.
How the values were obtained:
[1] = test system: ovalbumin challenged mice; assay type: in vivo; conditions: 24 h after repeated ovalbumin challenge, 10 μg intra-tracheal; for bronchial hyper-responsiveness to methacholine: FIG. 2; for recruitment of eosinophils to the airways (airways inflammation): percentage of eosinophils vs ovalbumin alone, FIG. 1; for levels of cytokines in BAL fluid (cytokine release in the lung): FIG. 3
Protocol: Allergic inflammation in the lung is induced by 2 intraperitoneal injections of 10 μg of ovalbumin (OVA) in 1 mg of alum with 7 days interval between them. Control animals receive alum only. On day 14, all animals are exposed to an aerosol of OVA for 25 minutes, once a day for 3 consecutive days. All measurements are performed 24 h after the last antigen challenge. […]

[2] = test system: ovalbumin challenged mice; conditions: previously demonstrated, Riffo-Vasquez et al. 2004; cited from earlier work
[3] = test system: ovalbumin challenged mice; assay type: in vivo; conditions: for levels of total IgE circulating in serum: 0.005 μg/mouse, FIG. 13; for recruitment of total cells to the airways / recruitment of eosinophils to the airways: intra-nasal; for recruitment of total cells to the airways: Cpn60.1 1 μg, FIG. 10; for recruitment of eosinophils to the airways: Cpn60.1 0.1 and 1 μg, peptide 4 0.005 μg, FIG. 11
[4] = test system: spleen cells of C57Bl/6 mice; assay type: cell-based, C57BI/6 mice; conditions: FIG. 8; for IL-12 release compared with Cpn60.1 at lower concentrations: lower concentrations (0.001-0.1 μg/ml)
[5] = test system: human peripheral blood monocytes; assay: Human monocyte assay, TNF-alpha secretion (ELISA); assay type: cell-based; conditions: for LPS-induced TNF-alpha secretion: pre-treatment 1 hour, then LPS (1 ng/ml) 24 hours, FIGS. 18, 20
Protocol: We have established a human monocyte assay to compare the efficacy of Cpn60.1 and various peptide sequences of this protein. Human monocytes were obtained by density-dependent centrifugation from peripheral venus blood from healthy volunteers. Monocytes were then isolated and purified with cells adjusted to a density of 2×10^6 cells/ml which were incubated for 1 hour 30 minutes. The plates were then washed twice with Hanks solution. 0.9 ml of RPMI medium was then added to each well followed by polymyxin-B (5 μg/ml). 30 minutes later, 0.1 ml of Cpn at 0.0001-1000 ng/ml or peptides were added to the wells. Cells were then incubated at 37° C., 5% CO2 for 1 hour. The medium was removed and cells washed. 0.9 ml of medium was added to each well followed by 0.1 ml of LPS (1 ng/ml) and left to incubate for 24 hours. Supernatant was taken from each well and frozen for Enzyme Linked Immunosorbent Assay (ELISA).

UV-treated rats = assay: Ultra Violet Burn-induced hyperalgesia; assay type: in vivo, male Wistar rats; conditions: compared to the group treated with ibuprofen; FIGS. 16 and 17
Protocol: (§1) The effect of Cpn60.1 has been investigated in 2 models of pain, Complete Freund's Adjuvant (CFA)-induced hyperalgesia and Ultra Violet Burn-induced hyperalgesia. Mechanical hyperalgesia was measured using Von Frey filaments applied with increasing force to the hind paw. Thermal hyperalgesia was measured using the time taken to withdraw the hind paw from a heat source. Cpn60.1 (50 & 500 μg/kg) was chronically administered to male Wistar rats (200 g) subcutaneously for 7 days. Every alternate day behavioural responses to mechanical and thermal allodynia were recorded. After baseline recordings, CFA was injected in to the hind paw to induce hyperalgesia and behavioural tests were performed. […] Another model of hyperalgesia was tested, this time using UV burn to induce allodynia. Again, Cpn60.1 had little effect at inhibiting hyperalgesia compared to the group treated with ibuprofen (FIGS. 16 and 17).

[6] = test system: spleen cells from TLR2KO mice; assay: IL-12 release in spleen cells from TLR2KO mice; assay type: cell-based; conditions: FIG. 9
CFA-treated rats = assay: Complete Freund's Adjuvant (CFA)-induced hyperalgesia; assay type: in vivo, male Wistar rats; conditions: 50 & 500 μg/kg subcutaneously for 7 days; compared to ibuprofen 100 mg/kg; FIGS. 14 and 15
Protocol: as §1

LPS-treated mice = assay: LPS-induced neutrophil recruitment to the lung (non-allergic inflammation); assay type: in vivo, Female Balb/c mice
Protocol: Female Balb/c mice were pre-treated intranasally with Cpn60.1 (1 μg/ml) for 3 days in the absence or following pre-treatment with polymyxin B (5 μg/ml) to rule out any effect of LPS contamination. 30 minutes after the last dose of Cpn60.1, mice were treated with LPS (1 μg/ml). Neutrophil influx and TNF-alpha release in the lungs were determined by bronchoalveolar lavage 24 hours later.

[7] = test system: bone marrow dendritic cells; assay: IL-12 production by bone marrow dendritic cells pulsed with chaperonins; assay type: cell-based, Balb/c mice; conditions: 48 h; Cpn60.1 0.1-30 μg/ml, Cpn10 10 μg/ml; FIG. 5
Protocol: (§2) Bone marrow cells from Balb/c mice were collected and cultured for 6 days in complete Dulbecco's Modified Eagle Medium containing 8 ng/ml of mouse GM-CSF. On day 6 of culture, the cells were collected, re-plated for 1 hour for removal of adherent cells, washed and plated at […] in 6-wells plates for analysis of surface markers expression and transference experiments and at 10^5 cells/well in 96-wells plate for cytokine measurements. In other experiments, cells were incubated at 10^6 cells/well for 24 h with the chaperonins and then another further 24 h with LPS (10 ng/ml).

[8] = test system: bone marrow dendritic cells; assay: LPS-induced IL12 production by dendritic cells after chaperonin pre-incubation; assay type: cell-based, Balb/c mice; conditions: pre-incubation 24 hours, then LPS (10 ng/ml) further 24 h; FIG. 6
Protocol: as §2
Pre-incubation of DC's with Cpn60.1 but not Cpn10 for 24 hours inhibited IL12 production induced by LPS (FIG. 6).

[9] = test system: co-culture of dendritic cells and RD11.10 T cells; assay: IL4 release in dendritic cell / T cell co-culture; assay type: cell-based, mice; conditions: DC pre-treated 10 μg/ml 24 h, FIG. 7
Protocol: as §2
DC pre-treated with Cpn60.1 (10 μg/ml) or Cpn10 (10 μg/ml) for 24 h suppressed the release of IL4 from RD11.10 T cells in a DC/T cell co-culture. After 6 days of culture, cells were stimulated with anti-CD3 and anti-CD28 for further 24 hours and supernatants collected. IL5 and IL10 were not detected in this culture (FIG. 7).

[10] = test system: spleen cells collected from TLR4KO mice; assay: IL-12 release in spleen cells from TLR4KO mice; assay type: cell-based; conditions: FIG. 9
[11] = test system: OVA-sensitized recipient mice; assay: Transfer of chaperonin pre-treated dendritic cells to OVA-sensitized recipient mice; assay type: in vivo; conditions: dendritic cells pre-treated in vitro 24 h with 10 μg/ml, given topically to lungs; FIG. 4
Protocol: as §2
The DC's were pre-treated in vitro for 24 h with Cpn10 (10 μg/ml) and then administrated topically to the lungs of OVA-sensitized recipient mice.

[12] = 24 h after repeated ovalbumin challenge
[13] = 24 h after repeated ovalbumin challenge, listed as Cpn60.1-peptide 4

Cpn60.2: M. tuberculosis chaperonin polypeptide chaperonin 60.2
bronchial hyper-responsiveness to methacholine [1]: not | recruitment of eosinophils to the airways (airways inflammation) [1]: not | lung inflammation in a murine model of asthma [2]: not

DGSVVVNKVSELPAGHGLNVNTLSYGDLAAD (listed as Mycobacterium tuberculosis) [Peptide 4]
levels of total IgE circulating in serum [3, 12]: affected total IgE production | levels of total IgE circulating in serum [3, 13]: significantly inhibited | levels of IL-5 in BAL fluid ([3]; 24 h after repeated ovalbumin challenge, FIG. 12): not caused by an interference with the production of IL-5 | levels of IL-5 in BAL fluid ([3]; 24 h after repeated ovalbumin challenge, FIG. 12, listed as Cpn60.1-peptide 4): not significantly inhibited | recruitment of total cells to the airways [3, 12]: inhibited | recruitment of eosinophils to the airways [3, 12]: significant reduction | recruitment of eosinophils to the airways [3, 13]: inhibited | IL-12 release compared with Cpn60.1 at higher concentration ([4]; higher concentration (0.1-30 μg/ml), polymixin B): reduced effect in comparison to Cpn60.1 | IL-12 release compared with Cpn60.1 at lower concentrations ([4]; polymixin B): more effective than Cpn60.1

LTTETVVVDKPAKAEDHDHHHGHAH (listed as Mycobacterium tuberculosis) [Peptide 6]
IL-12 release compared with Cpn60.1 at lower concentrations ([4]; polymixin B): less potent effect

B1: Cpn60.1: chaperonin protein Chaperonin 60.1 of Mycobacterium tuberculosis, amino acid sequence shown in FIG. 25 (protein)
chain: MSKLIEYDETARRAMEVGMDKLADTVRVTLGPRGRHVVLAKAFGGPTVTNDGVTVAREIELEDPFEDLGAQLVKSVATKTNDVAGDGTTTATILAQALIKGGLRLVAAGVNPIALGVGIGKAADAVSEALLASATPVSGKTGIAQVATVSSRDEQIGDLVGEAMSKVGHDGVVSVEESSTLGTELEFTEGIGFDKGFLSAYFVTDFDNQQAVLEDALILLHQDKISSLPDLLPLLEKVAGTGKPLLIVAEDVEGEALATLVVNAIRKTLKAVAVKGPYFGDRRKAFLEDLAVVTGGQVVNPDAGMVLREVGLEVLGSARRVVVSKDDTVIVDGGGTAEAVANRAKHLRAEIDKSDSDWDREKLGERLAKLAGGVAVIKVGAATETALKERKESVEDAVAAAKAAVEEGIVPGGGASLIHQARKALTELRASLTGDEVLGVDVFSEALAAPLFWIAANAGLDGSVVVNKVSELPAGHGLNVNTLSYGDLAADGVIDPVKVTRSAVLNASSVARMVLTTETVVVDKPAKAEDHDHHHGHAH
TNF-alpha release induced by LPS, percent of control values ([5]; Cpn60.1 vs Cpn60.1 peptides, FIG. 21): suppress | concentration of maximum inhibition of LPS-induced TNF-α secretion ([5]; although not significant, FIG. 18): 1 ng/mL | TNF-alpha secretion induced by the substance alone ([5]; no LPS): able to stimulate human monocytes to induce TNF-alpha secretion | LPS-induced TNF-alpha secretion in the presence of polymyxin-B ([5]; polymyxin-B 5 μg/ml, FIG. 19): suppresses | LPS-induced TNF-alpha secretion [5]: suppresses; also recorded: inhibited TNF-alpha secretion at low doses | UV burn-induced hyperalgesia (mechanical and thermal) (UV-treated rats): little effect | bronchial hyper-responsiveness to methacholine [1]: reduced; also recorded: significantly inhibit | levels of cytokines in BAL fluid (cytokine release in the lung) [1]: inhibited; also recorded: significantly inhibit | recruitment of eosinophils to the airways (airways inflammation) [1]: inhibited; also recorded: significantly inhibit | recruitment of total cells to the airways ([3]; […]): significantly inhibited | recruitment of total cells to the airways ([3]; […], listed as Cpn60): inhibited | recruitment of eosinophils to the airways ([3]; […]): significant reduction | recruitment of eosinophils to the airways ([3]; […], listed as Cpn60): inhibited | levels of IL-5 in BAL fluid ([3]; mouse, in vivo): not significantly inhibited; also recorded: not caused by an interference with the production of IL-5 | lung inflammation in a murine model of asthma [2]: suppressed | IL-12 response of TLR2KO spleen cells [6]: refractory | CFA-induced hyperalgesia (mechanical and thermal) (CFA-treated rats): Neither dose of Cpn60.1 reduced CFA-induced hyperalgesia | TNF-alpha secretion in the lungs (LPS-treated mice; intranasal 1 μg/ml for 3 days, LPS 1 μg/ml, lavage 24 hours later, FIG. 24): not significantly attenuated | LPS-induced neutrophilia (neutrophils recovered from lavage) (LPS-treated mice; intranasal 1 μg/ml for 3 days, LPS 1 μg/ml, lavage at 24 hours, FIG. 24): reduced LPS-induced neutrophilia; also recorded: suppression in neutrophilia | neutrophil recruitment with the substance alone (LPS-treated mice; no LPS, FIG. 23): No neutrophil recruitment | effect of polymyxin B pre-treatment on suppression of neutrophil recruitment (LPS-treated mice; polymyxin B (5 μg/ml)): made no difference | IL12 production by dendritic cells [7]: produced IL12 in a dose-dependant manner; also recorded: induced the release of IL-12 in a dose dependent-manner | IL12 production induced by LPS [8]: inhibited | IL-12 release ([4]; 0.001-30 μg/ml, 24 h, polymixin B 5 μg/ml): induce IL-12 release | levels of IL4 in DC/T cell co-culture ([9]; […]): suppressed | IL-12 response of TLR4KO spleen cells compared to wild type C57bl/6 [10]: reduced response; also recorded: significantly refractory

B2: Cpn10: M. tuberculosis chaperonin polypeptide chaperonin 10 (protein, UniProt P9WPE5 2-100, looked up)
Co-chaperonin GroES: AKVNIKPLEDKILVQANEAETTTASGLVIPDTAKEKPQEGTVVAVGPGRWDEDGEKRIPLDVAEGDTVIYSKYGGTEIKYNGEEYLILSARDVLAVVSK
LPS-induced TNF-alpha secretion [5]: does not suppress; also recorded: failed to inhibit | bronchial hyper-responsiveness to methacholine [1]: reduced; also recorded: significantly inhibit | levels of cytokines in BAL fluid (cytokine release in the lung) [1]: significantly inhibit | recruitment of eosinophils to the airways (airways inflammation) [1]: inhibited; also recorded: significantly inhibit | lung inflammation in a murine model of asthma [2]: suppressed | eosinophils migration to the lung [11]: significantly inhibited | IL12 production by dendritic cells [7]: induced low levels; also recorded: induced lower levels of IL-12 release in comparison to LPS and Cpn60.1 | IL12 production induced by LPS [8]: not | levels of IL4 in DC/T cell co-culture ([9]; 6 days co-culture, anti-CD3 and anti-CD28 24 hours): suppressed

— patent publication US9085632B2, “Biological materials and uses thereof” (PEPTINNOVATE LIMITED, priority 2008, dated 2015)
